Data as given in patent US20120282280A1 (Hoffmann-La Roche, published 2012).

B1: murine <Dig> IgG1 kappa from mouse hybridoma clone 19-11 (antibody, V domains shown)
VH: EVQLVESGGGLVKPGGSLKLSCAVSGFTFSDYAMSWIRQTPENRLEWVASINIGATYAYYPDSVKGRFTISRDNAKNTLFLQMSSLGSEDTAMYYCARPGSPYEYDKAYYSMAYWGPGTSVTVSS
VL: DVQMTQSTSSLSASLGDRVTISCRASQDIKNYLNWYQQKPGGTVKLLIYYSSTLLSGVPSRFSGRGSGTDFSLTITNLEREDIATYFCQQSITLPPTFGGGTKLEIK
notes: also called murine DIG-IgG 19-11; <DIG>M-19-11
B2: humanized <Dig> IgG (antibody, V domains shown)
VH: QVQLVESGGGLVKPGGSLRLSCAASGFTFSDYAMSWIRQAPGKGLEWVSSINIGATYIYYADSVKGRFTISRDNAKNSLYLQMNSLRAEDTAVYYCARPGSPYEYDKAYYSMAYWGQGTTVTVSS
VL: DIQMTQSPSSLSASVGDRVTITCRASQDIKNYLNWYQQKPGKAPKLLIYYSSTLLSGVPSRFSGSGSGTDFTLTISSLQPEDFATYYCQQSITLPPTFGGGTKVEIKR
notes: also called <DIG>hu2; <DIG>-hu2

How the values were obtained:
[1] = target: DIG-Myoglobin (mono-digoxygenated protein); assay: SPR (Biacore), DIG-Myoglobin as analyte
[2] = target: DIG-BP4 (digoxygenated protein); assay: SPR (Biacore), legend of FIG. 10d (Table 3 and the text print 33 pM)
[3] = target: DIG-BP4 (digoxygenated protein); assay: SPR (Biacore), antibody captured by anti-mouse IgG, DIG-BP4 injected 0.3125-10 nM, 25 C
[4] = target: DIG-Myoglobin (mono-digoxygenated protein); assay: SPR (Biacore), DIG-Myoglobin as analyte, replicate
[5] = target: DIG-Myoglobin (mono-digoxygenated protein); assay: SPR (Biacore), DIG-Myoglobin as analyte; remark: listed apart in the source
[6] = target: DIG-BP4 (digoxygenated protein); assay: SPR (Biacore), antibody captured by anti-human IgG, DIG-BP4 injected 0.3125-10 nM, 25 C
[7] = target: DIG-Myoglobin (mono-digoxygenated protein); assay: SPR (Biacore), DIG-Myoglobin as analyte; lower end of the range, tied to <DIG>hu2 by Table 3a

DIG-Myoglobin (mono-digoxygenated protein), sequence (P68082 2-154): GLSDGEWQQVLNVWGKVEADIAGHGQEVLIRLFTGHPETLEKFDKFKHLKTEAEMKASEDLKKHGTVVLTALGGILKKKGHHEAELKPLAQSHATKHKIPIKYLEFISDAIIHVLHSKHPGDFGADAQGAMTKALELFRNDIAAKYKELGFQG

Row | Binder | fold better affinity than <DIG>-hu2 and the disulfide-stabilized <DIG> scFv [1] [fold] | Kd [2] [nM] | Kd [3] [nM] | Kd [4] [nM] | koff [4] [s⁻¹] | kon [4] [M⁻¹ s⁻¹] | Kd [5] [nM] | koff [5] [s⁻¹] | kon [5] [M⁻¹ s⁻¹] | Kd [6] [nM] | Kd [7] [nM]
1 | B1 | ~100 | 33 | 0.033 | 0.295 | 0.000675 | 2.28e+06 | 0.386 | 0.000676 | 1.75e+06 | – | –
2 | B2 | – | – | – | 11.8 | 0.00881 | 749000 | 15.8 | 0.00982 | 620000 | < 0.076 | 15 to 25
